Data on 8 molecules can be found in US20240279328A1 (Johns Hopkins, published 2024).

For assay [1], the target named is T1, human Interleukin-2 (human, UniProt P60568 21-153, biotinylated (site not stated) when immobilised on streptavidin biosensors; soluble in the competition studies).
T1 construct: also called IL-2; hIL-2
Kind of assay: BLI (Octet), biotinylated human IL-2 immobilised on streptavidin tip, soluble antibody titrated, normalized equilibrium response. The method, then:
Error bars represent s.d.
(§1) Biolayer interferometry binding studies: Binding studies were performed via bio-layer interferometry using an OctetRED96® biolayer interferometry instrument (Sartorius). […] Once baseline measurements were collected in PBSA, binding kinetics were measured by submerging the biosensors in wells containing serial dilutions of the appropriate analytes for 300 s (association) followed by submerging the biosensor in wells containing only PBSA for 500 s (dissociation). […] An irrelevant protein (the monoclonal antibody ipilimumab) was used as a control for nonspecific binding. Tips were regenerated in 0.1 M glycine pH 2.7. Data was processed and kinetic parameters were calculated using the Octet® Data Analysis software version 7.1 (Sartorius), assuming a 1:1 Langmuir binding model.

Assay [2] deals with T1, human Interleukin-2. Description: BLI, kinetic KD, immobilised human IL-2, soluble antibody. The method, then:
as §1, with “model. Equilibrium binding was determined by total response measured after 295 s. Equilibrium titration curve fitting and KD value determination was implemented using GraphPad Prism, assuming all binding interactions to be first order.” for “model.”

For assay [3], the target named is T1, human Interleukin-2. Kind of assay: cell-based or functional assay.
The target of assay [4] is T1, human Interleukin-2. Description: BLI (Octet), biotinylated human IL-2 on streptavidin sensors, soluble antibody, 1:1 Langmuir fit. The method, then:
as §1, with “model. Equilibrium binding was determined by total response measured after 295 s. Equilibrium titration curve fitting and KD value determination was implemented using GraphPad Prism, assuming all binding interactions to be first order.” for “model.”

The target in assay [5] is T1, human Interleukin-2. Description: BLI, equilibrium KD from titration curve, immobilised human IL-2, soluble antibody. The method, then: as §1, with “model. Equilibrium binding was determined by total response measured after 295 s. Equilibrium titration curve fitting and KD value determination was implemented using GraphPad Prism, assuming all binding interactions to be first order.” for “model.”

Assay [6] addresses T1, human Interleukin-2. Description: BLI (Octet), immobilised human IL-2, soluble antibody, 1:1 Langmuir fit.
Assay [7] concerns the target T1, human Interleukin-2. Description: BLI, equilibrium KD from titration curve, immobilised human IL-2, soluble antibody. The source holds these as a separate data set.
For assay [8], the target named is T1, human Interleukin-2. Description: BLI, kinetic KD, immobilised human IL-2, soluble antibody. The source holds these as a separate data set.
Assay [9] addresses T1, human Interleukin-2. Kind of assay: cell-based or functional assay. This is another data set of the same source.

Like-named read-outs stand apart in the source and are kept apart here.

T1 sequence (P60568 21-153 limits assumed): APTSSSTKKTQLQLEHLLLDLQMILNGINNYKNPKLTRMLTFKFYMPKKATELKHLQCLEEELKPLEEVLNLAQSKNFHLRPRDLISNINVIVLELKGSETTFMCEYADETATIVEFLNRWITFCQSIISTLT

B1: 602 antibody (wild type anti-human IL-2 antibody) (antibody, mouse IgG2a, kappa)
heavy: DEVQLQESGPGLVAPSQSLSITCTVSGFSLTNYDISWIRQPPGKGLEWLGVIWTGGGTNYNSGFMSRLSITKDNSKSQVFLKMNSLQTDDTAIYYCVRQGRTPYWGQGTLVTVSAAKTTAPSVYPLAPVCGDTTGSSVTLGCLVKGYFPEPVTLTWNSGSLSSGVHTFPAVLQSDLYTLSSSVTVTSSTWPSQSITCNVAHPASSTKVDKKIEPRGPTIKPCPPCKCPAPNLLGGPSVFIFPPKIKDVLMISLSPIVTCVVVDVSEDDPDVQISWFVNNVEVHTAQTQTHREDYNSTLRVVSALPIQHQDWMSGKEFKCKVNNKDLPAPIERTISKPKGSVRAPQVYVLPPPEEEMTKKQVTLTCMVTDFMPEDIYVEWTNNGKTELNYKNTEPVLDSDGSYFMYSKLRVEKKNWVERNSYSCSVVHEGLHNHHTTKSFSRTPGK
light: AGSDIQVTQSPSSLSVSLGDRVTITCKASKDIYNRLAWYQQKPGNAPRLLISGATSLETGVPSRFSGSGSGKDYTLTITSLQTEDVATYYCQQFWGTPYTFGGGTKLEIKRADAAPTVSIFPPSSEQLTSGGASVVCFLNNFYPKDINVKWKIDGSERQNGVLNSWTDQDSKDSTYSMSSTLTLTKDEYERHNSYTCEATHKTSTSPIVKSFNRNEC
As for B1, in [1], the “EC50 (read off the curve)” value was roughly 3000 pM. The molecule also came in with a Kd in assay [2] of 2500 pM. For the same molecule, in assay [3], the “YT+ EC50 (STAT5 phosphorylation, IL-2Rα+ YT-1 cells)” value (shortened to “YT+ EC50”) is 180 pM and the “YT- EC50 (STAT5 phosphorylation, IL-2Rα- YT-1 cells)” value (“YT- EC50” for short) came to 5200 pM. Also, in assay [4], the koff was found to be 0.0019 s⁻¹ and the kon turned out to be 780000 M⁻¹ s⁻¹. In assay [5], this molecule had a Kd of 3200 pM.

B2: 602 M1 glycovariant (N-glycosylation site inserted in the heavy chain) (antibody, mouse IgG2a, kappa)
heavy: DEVQLQESGPGLVAPSQSLSITCTVSGFSLTNYDISWIRQPPGKGLEWLGVIWTGGGTNYNSGFMSRLSITKDNSKSQVFLKMNSLQTDDTAIYYCVRQGRTPYWGNGTLVTVSAAKTTAPSVYPLAPVCGDTTGSSVTLGCLVKGYFPEPVTLTWNSGSLSSGVHTFPAVLQSDLYTLSSSVTVTSSTWPSQSITCNVAHPASSTKVDKKIEPRGPTIKPCPPCKCPAPNLLGGPSVFIFPPKIKDVLMISLSPIVTCVVVDVSEDDPDVQISWFVNNVEVHTAQTQTHREDYNSTLRVVSALPIQHQDWMSGKEFKCKVNNKDLPAPIERTISKPKGSVRAPQVYVLPPPEEEMTKKQVTLTCMVTDFMPEDIYVEWTNNGKTELNYKNTEPVLDSDGSYFMYSKLRVEKKNWVERNSYSCSVVHEGLHNHHTTKSFSRTPGK
light: AGSDIQVTQSPSSLSVSLGDRVTITCKASKDIYNRLAWYQQKPGNAPRLLISGATSLETGVPSRFSGSGSGKDYTLTITSLQTEDVATYYCQQFWGTPYTFGGGTKLEIKRADAAPTVSIFPPSSEQLTSGGASVVCFLNNFYPKDINVKWKIDGSERQNGVLNSWTDQDSKDSTYSMSSTLTLTKDEYERHNSYTCEATHKTSTSPIVKSFNRNEC
modifications: inserted N-linked glycosylation site (position shown only in a drawing)
notes: One amino acid changed in the heavy chain to create a new N-glycosylation site; also called Mutant 1
In assay [2], B2 came in with a Kd of 2500 pM. Further, in [3], the “YT+ EC50” value came to 160 pM and the “YT- EC50” value worked out at 6000 pM. Moreover, in [4], the dissociation rate constant (koff) is 0.002 s⁻¹ and the kon came to 790000 M⁻¹ s⁻¹. In assay [5], this molecule registered a dissociation constant (Kd) of 3200 pM.

B3: 602 M8 glycovariant (N-glycosylation site inserted in the light chain) (antibody, mouse IgG2a, kappa)
heavy: DEVQLQESGPGLVAPSQSLSITCTVSGFSLTNYDISWIRQPPGKGLEWLGVIWTGGGTNYNSGFMSRLSITKDNSKSQVFLKMNSLQTDDTAIYYCVRQGRTPYWGQGTLVTVSAAKTTAPSVYPLAPVCGDTTGSSVTLGCLVKGYFPEPVTLTWNSGSLSSGVHTFPAVLQSDLYTLSSSVTVTSSTWPSQSITCNVAHPASSTKVDKKIEPRGPTIKPCPPCKCPAPNLLGGPSVFIFPPKIKDVLMISLSPIVTCVVVDVSEDDPDVQISWFVNNVEVHTAQTQTHREDYNSTLRVVSALPIQHQDWMSGKEFKCKVNNKDLPAPIERTISKPKGSVRAPQVYVLPPPEEEMTKKQVTLTCMVTDFMPEDIYVEWTNNGKTELNYKNTEPVLDSDGSYFMYSKLRVEKKNWVERNSYSCSVVHEGLHNHHTTKSFSRTPGK
light: AGSNITVTQSPSSLSVSLGDRVTITCKASKDIYNRLAWYQQKPGNAPRLLISGATSLETGVPSRFSGSGSGKDYTLTITSLQTEDVATYYCQQFWGTPYTFGGGTKLEIKRADAAPTVSIFPPSSEQLTSGGASVVCFLNNFYPKDINVKWKIDGSERQNGVLNSWTDQDSKDSTYSMSSTLTLTKDEYERHNSYTCEATHKTSTSPIVKSFNRNEC
modifications: inserted N-linked glycosylation site (position shown only in a drawing)
notes: Two amino acids changed in the light chain to create a new N-glycosylation site; also called Mutant 8
The molecule B3 yielded a Kd in assay [2] of 1800 pM. Also, in assay [3], the “YT+ EC50” value is 170 pM and the “YT- EC50” value stood at 4500 pM. In [4], this molecule registered a koff of 0.0018 s⁻¹ and a kon of 1e+06 M⁻¹ s⁻¹. The same molecule had a Kd in assay [5] of 2300 pM.

B4: F5111 M1 glycovariant (N-glycosylation site inserted in the heavy chain) (antibody, human IgG1, lambda)
heavy: not shown
light: GSNFMLTQPHSVSESPGKTVTISCTRSSGSIASNYVQWYQQRPGSSPTTVIYEDNQRPSGVPDRFSGSIDSSSNSASLTISGLKTEDEADYYCQSYDSSNVVFGGGTKLTVLGQPKAAPSVTLFPPSSEELQANKATLVCLISDFYPGAVTVAWKADSSPVKAGVETTTPSKQSNNKYAASSYLSLTPEQWKSHRSYSCQVTHEGSTVEKTVAPTECS
modifications: inserted N-linked glycosylation site (position shown only in a drawing)
Consider B4, for which, in assay [6], the off-rate constant (koff) came out at 0.00038 s⁻¹ and the kon turned out to be 330000 M⁻¹ s⁻¹. In [7], this molecule returned a Kd of 7800 pM. The molecule further gave an equilibrium dissociation constant (Kd) in assay [8] of 1100 pM. Also, in [9], the “YT+ EC50” value stood at 43 pM and the “YT- EC50” value stood at 890 pM.

B5: F5111 M3 glycovariant (N-glycosylation site inserted in the heavy chain) (antibody, human IgG1, lambda)
heavy: not shown
light: GSNFMLTQPHSVSESPGKTVTISCTRSSGSIASNYVQWYQQRPGSSPTTVIYEDNQRPSGVPDRFSGSIDSSSNSASLTISGLKTEDEADYYCQSYDSSNVVFGGGTKLTVLGQPKAAPSVTLFPPSSEELQANKATLVCLISDFYPGAVTVAWKADSSPVKAGVETTTPSKQSNNKYAASSYLSLTPEQWKSHRSYSCQVTHEGSTVEKTVAPTECS
modifications: inserted N-linked glycosylation site (position shown only in a drawing)
In [6], B5 gave a koff of 0.00017 s⁻¹ and a kon of 310000 M⁻¹ s⁻¹. The molecule also had a dissociation constant (Kd) in assay [7] of 8300 pM. The molecule also gave a Kd in assay [8] of 550 pM. For the same molecule, in assay [9], the “YT+ EC50” value came to 89 pM and the “YT- EC50” value came out at 390 pM.

B6: F5111 M4 glycovariant (N-glycosylation site inserted in the light chain) (antibody, human IgG1, lambda, V domains shown)
VH: QLQLQESGPGLVKPSQTLSLTCTVSGGSISSGGYYWSWIRQHPGKGLEWIGYIYYSGSTYYNPSLKSRVTISVDTSKNQFSLKLSSVTAADTAVYYCARTPTVTGDWFDPWGRGTLVTVSS
VL: SNFMLTQPHSVSESPGKTVTISCTRSSGSIASNYVQWYQQRPGSSPTTVIYEDNQRPSGVPDRFSGSINSSSNSASLTISGLKTEDEADYYCQSYDSSNVVFGGGTKLTVLG
modifications: inserted N-linked glycosylation site (position shown only in a drawing)
Consider B6, for which, in assay [6], the koff came out at 0.00014 s⁻¹ and the kon is 270000 M⁻¹ s⁻¹. This molecule also returned a Kd in assay [7] of 9700 pM. Further, in [8], the Kd worked out at 500 pM. For the same molecule, in assay [9], the “YT+ EC50” value amounted to 170 pM and the “YT- EC50” value was 520 pM.

B7: F5111 M5 glycovariant (N-glycosylation site inserted in the light chain) (antibody, human IgG1, lambda, V domains shown)
VH: QLQLQESGPGLVKPSQTLSLTCTVSGGSISSGGYYWSWIRQHPGKGLEWIGYIYYSGSTYYNPSLKSRVTISVDTSKNQFSLKLSSVTAADTAVYYCARTPTVTGDWFDPWGRGTLVTVSS
VL: SNFMLTQPHSVSESPGKTVTISCTRSSGSIASNYVQWYQQRPGSSPTTVIYEDNQRPSGVPDRFSGSIDNSSNSASLTISGLKTEDEADYYCQSYDSSNVVFGGGTKLTVLG
modifications: inserted N-linked glycosylation site (position shown only in a drawing)
On to B7, for which, in [6], the koff was found to be 0.00023 s⁻¹ and the kon came out at 280000 M⁻¹ s⁻¹. This molecule returned a Kd in [7] of 9800 pM. In assay [8], this molecule gave a Kd of 820 pM. Besides, in assay [9], the “YT+ EC50” value is 39 pM and the “YT- EC50” value is 790 pM.

B8: F5111 M2 glycovariant (N-glycosylation site inserted in the heavy chain) (antibody, human IgG1, lambda, V domains shown)
VH: QLQLQESGPGLVKPSQTLSLTCTVSGGSISSGGYYWSWIRQHPGKGLEWIGYIYYSGSTYYNPSLKSRVTISVDTSKNQFSLKLSNVTAADTAVYYCARTPTVTGDWFDPWGRGTLVTVSS
VL: SNFMLTQPHSVSESPGKTVTISCTRSSGSIASNYVQWYQQRPGSSPTTVIYEDNQRPSGVPDRFSGSIDSSSNSASLTISGLKTEDEADYYCQSYDSSNVVFGGGTKLTVLG
modifications: inserted N-linked glycosylation site (position shown only in a drawing)
In assay [6], B8 had a koff of 0.00021 s⁻¹ and a kon of 270000 M⁻¹ s⁻¹. In assay [7], this molecule returned a Kd of 9600 pM. In [8], this molecule yielded a Kd of 760 pM. For the same molecule, in assay [9], the “YT+ EC50” value was 98 pM and the “YT- EC50” value turned out to be 440 pM.
